This note sets out measurements from the supplement of paper PMC9170038.

The subject of the series is MS2 coat protein. Put plainly: apparent KD of MS2 coat protein; designed switch direction (-1 OFF switch, 1 ON switch): -1; higher = weaker reporter binding. In outline:
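Each step of the titration lasted 0.8–1.5 h at the lowest concentration and 10–20 min at the highest. The protein, SNAP-549-labelled MS2 coat protein, went from 0.7 or 1.5 nM doubling to 3 µM over RNA switches transcribed on Illumina chips by stalled E. coli RNA polymerase. Normalised cluster fluorescence was curve-fitted, and the per-design median over clusters is given as apparent KD.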

Where [1] appears, read: input ligand: microRNA oligo, concentration not stated.
The mark [2] stands for this setting: Eterna round: R95, input ligand: microRNA oligo, concentration not stated.
Setting [3] is: Eterna round: R95, input ligand: FMN 200 uM.
[4] abbreviates: Eterna round: R95, input ligand: none.

As for “AAACAAGCGUGAGGCUCGUCUUAAAAAGCUUCAUGAAAAACAUGAGGAUCACCCAUGUAAAAUGAUCGAAAGAUCAA [JL turnoff v2 28] (Eterna round: R96, puzzle: Sensor v2, turn-off variant 2)”, the “apparent KD of MS2 coat protein” value came out at 15.4 nM (input ligand: FMN 200 uM), 34.2 nM under setting [1] and 18.2 nM (input ligand: none).

Consider “AAACACCAAGGAUAUACAUGAGGAUCACCCAUGUGGUCCGGCACGGGUCUCGAUUCGAGUAGAAGGUGGAUGGG [Eternabot (L1) Solution 80] (Eterna round: R97, puzzle: Exclusion 3)”, for which the “apparent KD of MS2 coat protein” value is, setting by setting: (input ligand: FMN 200 uM) 56.7 nM; (input ligand: none) 76.5 nM.

“AAACAGGAAGGAUAUACAUGAGGAUCACCCAUGUAGGAAAACCUACCAAAAGACCCAAGUAGAAGGUCCGAAAA [jl-ex3-4.64 ViennaUCT mod] (Eterna round: R97, puzzle: Exclusion 3)”: the “apparent KD of MS2 coat protein” value is 25.8 nM (input ligand: FMN 200 uM) and 15.3 nM (input ligand: none).

Consider “AAACAGGGAGGAUAUACAUAGAUCGUCUAACCUAAUUGGUCACAUGAGGAUCACCCAUGUAGAAGGCCCUUAGG [Tiisdixe] (puzzle: Exclusion 2)”, for which, under setting [2], the “apparent KD of MS2 coat protein” value came to 22.2 nM.

On to “AAACCCUGAGGAUAUACAUAACAACAAAGCCUCACAUGCCAACAUGAGGAUCACCCAUGUAGAAGGCAGGCCAA [Mod R3 Insanara 13 - Jieux - Exclusion 2] (Eterna round: R97, puzzle: Exclusion 2)”, for which the “apparent KD of MS2 coat protein” value (input ligand: FMN 200 uM) turned out to be 19.2 nM and the “apparent KD of MS2 coat protein” value (input ligand: none) is 10.1 nM.

Turning to “AAACCUUGAGGAUAUACAUAACAACAAAGCCUCACGUGCCAACAUGAGGAUCACCCAUGUAGAAGGCAGGCCAA [Mod R3 Insanara 11 - Jieux - Exclusion 2] (Eterna round: R97, puzzle: Exclusion 2)”, the “apparent KD of MS2 coat protein” value came out at 15.6 nM (input ligand: FMN 200 uM) and 12.7 nM (input ligand: none).

Turning to “AAACGGAUAGGAUAUACUUGAGGAUCACCCAAGUGAUCAGUCCCGGGAAUUCCCGCAAGUAGAAGGAUCAAAAG [Arisrevexe] (Eterna round: R97, puzzle: Exclusion 3)”, the “apparent KD of MS2 coat protein” value was found to be 1120 nM (input ligand: FMN 200 uM) and 162 nM (input ligand: none).

Consider “AAACGGCAGGGAGGAUAUGCCUACCUGGGUCGUCUUCAAACAUGAGGAUCACCCAUGUAGUCGACGCAGAAGGCCCUCAAAGCC [Ontiis] (Eterna round: R96, puzzle: Exclusion NG 2)”, for which the “apparent KD of MS2 coat protein” value turned out to be 38.7 nM (input ligand: FMN 200 uM), 8.22 nM under setting [1] and 12.7 nM (input ligand: none).

“AAACGUAGACAGGAUAUCUGCGCCCUUGGUUAAAGAGAAGGGUCUACAUGAGGAUCACCCAUGUGGUGUAACUC [Dibedididi] (puzzle: Exclusion 6)”: the “apparent KD of MS2 coat protein” value worked out at 13.8 nM under setting [3], 18.4 nM under setting [2] and 23.6 nM under setting [4].

For the sequence “AAACUCCCAACCACCGGGAACAUGAGGAUCACCCAUGUGGCGUGACUCAUACGGGCUUUUUGUUCGUUUUAUUCACG [Soesesqu] (puzzle: Sensor v3, turn-off variant 1)”, the “apparent KD of MS2 coat protein” value runs as follows: under setting [3], 69 nM; under setting [2], 20.1 nM; under setting [4], 72.5 nM.

For the sequence “AAAGAACAUGAGGAUCACCCAUGUGAGGAUAUGCGAAAACCGCUGGCGCACCAGACGGGCAGAAGGCAUAUGGU [Aonustiri] (puzzle: Exclusion 1)”, the “apparent KD of MS2 coat protein” value under setting [2] is 48.9 nM.

With “AAAGAAGAGAGAAAAUAACACAUGAGGAUCACCCAUGUGAGAUGUUGAGGGUGAUACAGGCUUUUUGCUCGUCUUAU (puzzle: Sensor v3, turn-off variant 1)”, the “apparent KD of MS2 coat protein” value runs as follows: under setting [3], 231 nM; under setting [2], 283 nM; under setting [4], 321 nM.

Regarding “AAAGAAGAGAGAAAAUAACACAUGAGGAUCACCCAUGUGCGAUGUUGAGGGUGAUACAGGCUUUUUGCUCGUCUUAU (puzzle: Sensor v3, turn-off variant 1)”, the “apparent KD of MS2 coat protein” value runs as follows: under setting [3], 311 nM; under setting [2], 512 nM; under setting [4], 199 nM.

As for “AAAGACAUGAGGAUCACCCAUGUACUGGUGGAGCUCGUGAGGCAGGAUAUCGCGUGCGAAGCUCGCGAGAAGGGCCAGGAAUUU [Cexela] (Eterna round: R96, puzzle: Exclusion NG 3)”, the “apparent KD of MS2 coat protein” value was 416 nM (input ligand: FMN 200 uM), 98.2 nM under setting [1] and 109 nM (input ligand: none).

For “AAAGAGCAAGGAUAUACAUGAGGAUCACCCAUGUAGUACGUGAACCAGGUUUUCCUGAGUAGAAGGUGCAGACA [Dibira] (puzzle: Exclusion 3)”, the “apparent KD of MS2 coat protein” value under setting [2] is 28.1 nM.

“AAAGCGUCAGGAUAUCCAAUAUAUGACAUGAGGAUCACCCAUGUUUCCACUCGUACCUCCGGAGAAGGGACAAAUA [Ex5 #86] (Eterna round: R97, puzzle: Exclusion 5)”: the “apparent KD of MS2 coat protein” value by setting is: (input ligand: FMN 200 uM) 32.5 nM; (input ligand: none) 38.1 nM.

Regarding “AAAUAACCUCUAGGAUAUGUGUACGUAUAGUGCGCAGAAGGAGACAUGAGGAUCACCCAUGUACACACACAACAAACGACCACC (Eterna round: R96, puzzle: Exclusion NG 1)”, the “apparent KD of MS2 coat protein” value is, setting by setting: (input ligand: FMN 200 uM) 26.1 nM; under setting [1], 27.3 nM; (input ligand: none) 30.4 nM.

As to “AAAUAAUGAGGAUAUACAGUGUAAAACAUGAGGAUCACCCAUGUUCUUCAAUUAGUAUUUGUAGAAGGCAUAGGUA [JR_Ex5_Sub094] (Eterna round: R97, puzzle: Exclusion 5)”, the “apparent KD of MS2 coat protein” value runs as follows: (input ligand: FMN 200 uM) 38.5 nM; (input ligand: none) 60.7 nM.

Take “AAAUACAAGCAGAGAUCCUACAUGAGGAUCACCCAUGUGCUCGUCUUAUAAAGUACUAUCACGAAAGUGAUAGUACA [Sensor 3, v1 - 17] (puzzle: Sensor v3, turn-off variant 1)”: the “apparent KD of MS2 coat protein” value is, setting by setting: under setting [3], 184 nM; under setting [2], 41.8 nM; under setting [4], 218 nM.

With “AAAUACAAGUAAAGAUCCUACAUGAGGAUCACCCAUGUGCUCGUCUUGUAAAGUACUAUCACGAAAGUGAUAGUACA [Sensor 3, v1 - 22] (puzzle: Sensor v3, turn-off variant 1)”, the “apparent KD of MS2 coat protein” value is, setting by setting: under setting [3], 45.7 nM; under setting [2], 31.5 nM; under setting [4], 51 nM.

“AAAUACAAGUAAAGAUUCUACAUGAGGAUCACCCAUGUGCUCGUCUUAUAAAGUACUAUCACGAAAGUGAUAGUACA [Sensor 3, v1 - 26] (puzzle: Sensor v3, turn-off variant 1)”: the “apparent KD of MS2 coat protein” value is, setting by setting: under setting [3], 17 nM; under setting [2], 188 nM; under setting [4], 15 nM.

Consider “AAAUACAAGUAGAGAUUCUACAUGAGGAUCACCCAUGUGCUCGUCUUAUAAAGUACUAUCACGAAAGUGAUAGUACA [Sensor 3, v1 - 37] (puzzle: Sensor v3, turn-off variant 1)”, for which the “apparent KD of MS2 coat protein” value reads like this: under setting [3], 14.2 nM; under setting [2], 211 nM; under setting [4], 14.1 nM.

On to “AAAUAGCAUGAGGAUAUUGAACUGUAUAUAGUACGAGAAGGCAUGACAUGAGGAUCACCCAUGUUUUGUUGGGA [EX6 #3] (Eterna round: R97, puzzle: Exclusion 6)”, for which the “apparent KD of MS2 coat protein” value reads like this: (input ligand: FMN 200 uM) 114 nM; (input ligand: none) 33.2 nM.

Regarding “AAAUAGCUAGAGGAUAUCGGAUAGAAUUUAUUACGAGAAGGUUAGACAUGAGGAUCACCCAUGUUCUGUUGGGA [EX6 #22] (Eterna round: R97, puzzle: Exclusion 6)”, the “apparent KD of MS2 coat protein” value is, setting by setting: (input ligand: FMN 200 uM) 70 nM; (input ligand: none) 33.8 nM.

For “AAAUAGGGAGGAUAUCCAAUAUAUGACAUGAGGAUCACCCAUGUUUCCACUCGUACCUCCGGAGAAGGCCCAUAAA [Ex5 #3] (Eterna round: R97, puzzle: Exclusion 5)”, the “apparent KD of MS2 coat protein” value (input ligand: FMN 200 uM) amounted to 20.9 nM and the “apparent KD of MS2 coat protein” value (input ligand: none) came to 21.8 nM.

With “AAAUCGGUAGAGGAUAUUGUACAGGAAACGGUGCAAGAAGGUUACACAUGAGGAUCACCCAUGUUAAAUUGCGA [EX6 #52] (Eterna round: R97, puzzle: Exclusion 6)”, the “apparent KD of MS2 coat protein” value runs as follows: (input ligand: FMN 200 uM) 21.4 nM; (input ligand: none) 17.3 nM.

As for “AAAUCUCACGUAAGGAUAUCCUGGGCAACGUCCACGGAGAAGGUACAUGAGGAUCACCCAUGUGCUCGCUAUAC [BmEX4 C.1] (Eterna round: R97, puzzle: Brourd's mod of Exclusion 4)”, the “apparent KD of MS2 coat protein” value worked out at 25.2 nM (input ligand: FMN 200 uM) and 19.7 nM (input ligand: none).

“AAAUCUGAGAAGGAUAUGGUACAGGAAAUGGUGCCAGAAGGUUUCACAUGAGGAUCACCCAUGUCGAAUAGUGA [EX6 #65] (Eterna round: R97, puzzle: Exclusion 6)”: the “apparent KD of MS2 coat protein” value reads like this: (input ligand: FMN 200 uM) 29.6 nM; (input ligand: none) 19.3 nM.

On to “AAAUGCAAGUAAAGAUUCUACAUGAGGAUCACCCAUGUGCUCGUCUUAUAAAGUACUAUCACGAAAGUGAUAGUACA [Sensor 3, v1 - 35] (puzzle: Sensor v3, turn-off variant 1)”, for which the “apparent KD of MS2 coat protein” value under setting [3] was determined as 14.2 nM, the “apparent KD of MS2 coat protein” value under setting [2] turned out to be 100 nM and the “apparent KD of MS2 coat protein” value under setting [4] is 14.2 nM.

For the sequence “AAAUUAAGUGUGAGGAUAUGCUGGUCCAUAGAUCAGCAGAAGGCACAUGAGGAUCACCCAUGUAAUAUAUUUAA [Mat - Exclusion 4 - JL Mod - D51] (puzzle: Brourd's mod of Exclusion 4)”, the “apparent KD of MS2 coat protein” value is, setting by setting: under setting [3], 134 nM; under setting [2], 29.4 nM; under setting [4], 23 nM.

Take “AAAUUAAGUGUGAGGAUAUGCUGGUCCUUAGAUCAGCAGAAGGCACAUGAGGAUCACCCAUGUAAUAUAUUUAA [Mat - Exclusion 4 - JL Mod - D50] (puzzle: Brourd's mod of Exclusion 4)”: under setting [2], the “apparent KD of MS2 coat protein” value was 35.4 nM.
